According to the nanobody polyreactivity screen of Harvey et al. (2022):

Experiment: yeast display, Sf9 membrane polyspecificity reagent, FACS + sequencing; frameworks hold sequencing errors
Outline: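 Galactose-induced (36–48 hours) yeast carrying a synthetic nanobody display library were exposed to 10% biotinylated, detergent-solubilized Sf9 membrane reagent at 4 °C for 1 hour. FACS followed streptavidin microbead enrichment, using low and high (top ~1%) gates for expression (anti-HA) and reagent binding (streptavidin). Colony PCR, MiSeq 2 × 250 sequencing and CDR-length filtering followed. Labels for polyreactivity reflect the gate of origin.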

Sequence	polyreactivity (PSR sort gate)
QVQLVESGGGLVQAGGSLRLSCAASGFTFGAYARGWYRQAPGKERELVAAISSRGGSTYYADSVKGRFTISRDNAKNTVYLQKNSLKPEDTAVYYCAANSYRRTGYNYWGQGTQVSVSS	high polyreactivity
QVQLVESGGGLVQAGGSLRLSCAASGFTFGGNARGWYRQAPGKERELVAAIRRGGSTNYADSVKGRFTISRDNAKNTVYLQMNSLKPEDTAVYYCARDYRSYTGSYDTSYDYWGQGTQVTVSS	high polyreactivity
QVQLVESGGGLVQAGGSLRLSCAASGFTFGGYAMGWYRQAPGKERDLVAAITGSGGNTIYADSVKGRFTISRDNAKNTFYLQINSLKPDDTAVYYCNARYTSHTHADCVYLFDYWGQGTQVNVSS	low polyreactivity
QVQLVESGGGLVQAGGSLRLSCAASGFTFGHYAMGWYRQAPGIERELVAAISRSGGTTSYADSVKGRFTISRDNAKNTVYLQMNSLKPEDTAVYYCNKDYIWARYGGGRDYWGQGTQVTVSS	low polyreactivity
QVQLVESGGGLVQAGGSLRLSCAASGFTFGHYAMGWYRQAPGKERELVAAISIDGGRTYYADSVKGRFTISRDNAKNTVYLQMNSLKPEDTAVYYCAVPRWVYYTSDYDYWGQGTQVTVSS	high polyreactivity
QVQLVESGGGLVQAGGSLRLSCAASGFTFGINAMGWYRQAPGQERELVASISSGSSTTYADSVKGRFTISRDNAKNTVYLQMNSLKPEDTAVYYCNARPFHIYWRYDYWGQGTQLTVSS	low polyreactivity
QVQLVESGGGLVQAGGSLRLSCAASGFTFGIYAMGWYRQAPGKERELVAAITSGGITKYADSVKGRFTISRDNAKNTVYLQMNSLKPEDTAVYYCAATGYRQSYDSTWYRYDYWGQGTQVTVSS	low polyreactivity
QVQLVESGGGLVQAGGSLRLSCAASGFTFGLYVMGWYRQAPGKERELVAVISRSGGGTYYADSVKGRFTISRDNAKNTVYLQMNSLKPEDSAVYYCAKPFSYITGWYNYWGQGTQVTVSS	high polyreactivity
QVQLVESGGGLVQAGGSLRLSCAASGFTFGPYAMGWSRQAPGKEREFVAAITSSGGSTYYADSVKGRFTISRDNAKNTVYLQMNSLKPEDTAVYYCNARSRGYVGKTPRRYYYWGQGTQVTVSS	high polyreactivity
QVQLVESGGGLVQAGGSLRLSCAASGFTFGPYDLGWYRQAPGKERELVAAITDSSGSTHYADSVKGRFTISRDNAKNTVYLQMNSLKPEDTAVYYCAADDSSRTTYDYWGQGTQVTVSS	low polyreactivity
QVQLVESGGGLVQAGGSLRLSCAASGFTFGPYDMGWYRQAPGTERELVAAITDSSGSTHYADSVKGRFTLSRDNAKNTFYLQMNSLKPEDTAVYYCAADVSSRTTYDYWGQGTQVTVSS	low polyreactivity
QVQLVESGGGLVQAGGSLRLSCAASGFTFGRNAMGWYRQAPAKERELVAAISYDGTRTYYADSVKGRFTISRDKAKNTVYLQMNSLKPEDTAVYYGNAVWVRGFYRVYDYWGQGTQVTVSS	high polyreactivity
QVQLVESGGGLVQAGGSLRLSCAASGFTFGRNAMGWYRQAPGKERELVAAISSSGGTTYYADSVKGRFTISRDNAKNTVYLQMNSLKPEDTAVYSCAARRWYQSRRGGFDYWGQGTQVTVSS	high polyreactivity
QVQLVESGGGLVQAGGSLRLSCAASGFTFGRYAMGGYRQAPGKERELVAAITSRGGSTYYADSVKGRFTISRDNAKNTVYLQMNSLKPEDTAVYYCAAATNTGPRGYEYWGQGTQVTVSS	high polyreactivity
QVQLVESGGGLVQAGGSLRLSCAASGFTFGRYAMGWYRQAPGKERELVAAISRGGSSTYYADSVKGRFTISRDNAKNTVYLQMNSLKPEDNAVYYCNKVIIWARFDYWGQGTQVTVSS	high polyreactivity
QVQLVESGGGLVQAGGSLRLSCAASGFTFGRYAMGWYRQAPGKERELVAAISTSGGRTYYADSVKGRFTISRDNAKNTVYLQMNSLKPEDTAVYYCAAEQRRFTGYDYWGQGTQVTVSS	high polyreactivity
QVQLVESGGGLVQAGGSLRLSCAASGFTFGRYAMGWYRQAPGKERELVAAISWSGTRTYYADSVKGRFTISRDNAKNTVYLQLNSLKPEDTADYYCAAYPPPWAQTGFYTYDYWGQGTQVTVSS	high polyreactivity
QVQLVESGGGLVQAGGSLRLSCAASGFTFGRYAMGWYRQAPGKERELVAAITWSGGSTYYADSVKGRFTISRDNAKNTVYLQMNSLKPEDTAVYYCNRLSNNREYDYWGQGTQVTVSS	high polyreactivity
QVQLVESGGGLVQAGGSLRLSCAASGFTFGRYAMGWYRQAPGKVRELVAAINWSGGSTYYADSVKGRFTISRDNAKNTVYLQMNSLKPEDPAVYYCNKGVSRSSVRGDYWGQGTQVTVSS	high polyreactivity
QVQLVESGGGLVQAGGSLRLSCAASGFTFGSNAMGWYRQAPGKEREFVAAISRSGSRTYYADSVKGRFTISRDNAKNTVYLQMNSLKPEDTAVYYCNARSGEISQRHMDYWGQGTQVTVSS	high polyreactivity
QVQLVESGGGLVQAGGSLRLSCAASGFTFGSNAMGWYRQAPGKERELVAAISSRGGRTYYADSVKGRFTISRDNAKNTVYLQMNSLKPEDTAVYYCAKYRSYRGPYNYWGQGTQVTVSS	high polyreactivity
QVQLVESGGGLVQAGGSLRLSCAASGFTFGSNAMGWYRQAPGKERELVATISRRGGRTYYADSVKGRFTISRDNAKNTVYLQMNSLKPEDTAVYYCAADRSRPGYDYWGQGTQVTVSS	high polyreactivity

Sequence	polyreactivity (PSR sort gate)
QVQLVESGGGLVQAGGSLRLSCAASGFTFGSNTMGWYRQAPRKERELVAAITGRGGSTYYADSVKGRFTSSRDNAKNTVYLQMTSLKPEDTAVYYCAARTYPTGASFDYWGQGTQVTVSS	high polyreactivity
QVQLVESGGGLVQAGGSLRLSCAASGFTFGSNVMGWYRQAPGKERELVAAIRGRGGSTYYADSVKGRFTISRDNAKNTVYLQMNSLKPEDTAVYYCNAVYSYYYRWYYDFDYWGQGTQVTVSS	high polyreactivity
QVQLVESGGGLVQAGGSLRLSCAASGFTFGSYAMGWSRQAPGKERELVAVITRSGRTNYADSVKGRFTISRDNAKNTVYLQMNSLKPEDTAVYYCNADDVDDEVSPDLTEMDYWGQGTQVTVSS	low polyreactivity
QVQLVESGGGLVQAGGSLRLSCAASGFTFGSYAMGWYRQAPGKERELVAVITRSGRTNYADSVKGRFTISRDNAKNTVYLQMNSLKPEDTEVYYCNADDVDDEVSPDLTEMDYWGQGTQVTVSS	low polyreactivity
QVQLVESGGGLVQAGGSLRLSCAASGFTFGTYAMGWYRQAPGKERELVARITSGGRTNYADSVKGRFTISRDNAKNTVYLQMNSLKPEDTAVFYCNAVNGYYWGSRFDYWGQGTQVTVSS	high polyreactivity
QVQLVESGGGLVQAGGSLRLSCAASGFTFGTYDMGWYRQAPGKERELVAAIDWGGGSTYYADSVKGRFTISRDNAKNTFYLQMNSLKTEDTAFYYCAADGPGDYLTLEWYWFTYYYWGQGTQVTVTS	high polyreactivity
QVQLVESGGGLVQAGGSLRLSCAASGFTFGTYDMGWYRQAPGKERELVAAISTSGGSTYYADSVKGRFTISRDNAKNTVYLQMNSLKPEDTAVYYCAARIVYYGGYGYWGQGTQVTVSS	high polyreactivity
QVQLVESGGGLVQAGGSLRLSCAASGFTFGVNAMGWYRQAPGKERELVAVITSGGNTYYADSVKGRFTISRDNAKNTVYLQMNSLKPEDTAVYYCAADLSDTSYATRYQGDYWGQGTQVTVSS	low polyreactivity
QVQLVESGGGLVQAGGSLRLSCAASGFTFGVYAMGWYRQAPGKERELVAAISVSGGRTYYADSVKGRFTISRDNAKNTVYLQMNSLKPEDTAVYYCAADLGLKTSSRRTSMYYWGQGTQVTVSS	high polyreactivity
QVQLVESGGGLVQAGGSLRLSCAASGFTFGVYAMGWYRQAPGKERELVAAITRSGSSTYYADSVKGRFTISRDNAKNTVYLQMNSLKPEDTAVYYCNKYKYVSAVQWKVAGDYWGQGTQVTVSS	low polyreactivity
QVQLVESGGGLVQAGGSLRLSCAASGFTFGWYAMGWYRPAPGKERELVAAISSTGGRTYYADSVKGRFTISRDNAKNTVYLQMNSLKPEDTAVYYCAAAYSYGTEYGYWGQGTQVTVSS	high polyreactivity
QVQLVESGGGLVQAGGSLRLSCAASGFTFGYNAMGWYRHAPGKERELVAAISYRDGSTYYADSVKGRFTISRDNAKNTVYLQMNSLKPEDTAVYYCAAEVWYPGWGYDYWGQGTQVTVSS	high polyreactivity
QVQLVESGGGLVQAGGSLRLSCAASGFTFGYNAMGWYRQAPGKEREFVAAISISTGRTFYADSVKGRFTISRDNAKNTVYLQMNSLKPEDTAFYYCAARGYYPTNVGKYNYWGQGTQVTVSS	high polyreactivity
QVQLVESGGGLVQAGGSLRLSCAASGFTFGYNAMGWYRQAPGKEREMVAAINYGGSTDYADSVKGRFTISRDYAKNTVYLQMNSLKPEDTAVYYCNIADRYAYWVRGRHRYGYWGQGTQVTVSS	low polyreactivity
QVQLVESGGGLVQAGGSLRLSCAASGFTFGYNAMGWYRQTPGKERELVAVITQSGGRTYYADSVKGRFTISRDNAKNTVYLQMNSLKPEDTAVYYCAARYRLPPYYYWGQGTQVTVSS	high polyreactivity
QVQLVESGGGLVQAGGSLRLSCAASGFTFGYYAMGRYRQAPGKERELVATITSSGASTYADSVKGRFTISRDNAKNTVYLLMNSLKPEDTAVYYCAADRLPSYWSWYGYDYWGQGTQVTVSS	high polyreactivity
QVQLVESGGGLVQAGGSLRLSCAASGFTFGYYAMGWYRQAPGKERELVAAINWSGDSTYYADSVKGRFTISRDNAKNTVYLQMNSLKPEDTAVYYCNAVIEDLPYDYWGQGTQVTVSS	low polyreactivity
QVQLVESGGGLVQAGGSLRLSCAASGFTFGYYAMGWYRQAPGKERELVAAITWNGGSTYYADSVKGRFTISRDYAKNTVYLQMNSLKPEDTAVYYCAAVYKYIQRYDYWGQGTQVTVSS	high polyreactivity
QVQLVESGGGLVQAGGSLRLSCAASGFTFGYYAMGWYRQAPGKERELVARISRRGGTTYYADSVKGRFTISRDNAKTTVYLQMNSLKPEDTAVYYCATDGVWNRINRYDYWGQGTQVTVSS	high polyreactivity
QVQLVESGGGLVQAGGSLRLSCAASGFTFGYYAMGWYRQAPGKERELVDAISSSGGSTYYSDSVKGSFTISRDNAKNTVYLQMNSLKPEDTAVYYCNRGTTVRGPGYTNGRDITRYDYWGQGTQVTVSS	high polyreactivity
QVQLVESGGGLVQAGGSLRLSCAASGFTFGYYTMGWYRPEAGKEWELVAAISNSGGRTYYADSVKGRFTISLDYAKNTVYFQMNSLKPEDTAVYYCAKAYRTPGYDSWGQGTQVTVSS	high polyreactivity
